Reference: patent publication US20110300138A1 (published 2011)

Tests used:
[1] = target: T1, human TSH receptor (full length), coated on tubes (human, UniProt P16473 22-764); assay: competition with 125I-K1-18 IgG on TSHR coated tubes; 1 µg/mL, diluted in assay buffer
T1 construct: TSHR coated tubes as described in WO2004/050708A2; Exact preparation on the tubes is not detailed here; also called thyroid stimulating hormone receptor
Procedure: (§1) Binding inhibition assays were carried out using TSHR coated tubes as described in WO2004/050708A2. […] After aspiration, the tubes were washed and 100 μL of ¹²⁵I-labelled protein (5×10⁴ cpm) added and incubated for 1 hour at room temperature with shaking. The tubes were then aspirated, washed and counted in a gamma counter. Inhibition of labelled protein binding was calculated as 100×[1−(cpm bound in the presence of test material/cpm bound in the presence of control material)].

[2] = target: T1, human TSH receptor (full length), …; assay: competition with 125I-K1-18 IgG on TSHR coated tubes; 3 µg/mL, diluted in assay buffer
Procedure: as §1

[3] = target: T1, human TSH receptor (full length), …; assay: competition with 125I-K1-18 IgG on TSHR coated tubes; 10 µg/mL, diluted in assay buffer
Procedure: as §1

[4] = target: T1, human TSH receptor (full length), …; assay: competition with 125I-K1-18 IgG on TSHR coated tubes; 30 µg/mL, diluted in assay buffer
Procedure: as §1

[5] = target: T1, human TSH receptor (full length), …; assay: competition with 125I-K1-18 IgG on TSHR coated tubes; 0.1 µg/mL, diluted in assay buffer
Procedure: as §1

[6] = target: T1, human TSH receptor (full length), …; assay: competition with 125I-K1-18 IgG on TSHR coated tubes; 0.3 µg/mL, diluted in assay buffer
Procedure: as §1

[7] = target: T1, human TSH receptor (full length), …; assay: competition with 125I-K1-18 IgG on TSHR coated tubes; 1 µg/mL, diluted in HBD serum pool
Procedure: as §1

[8] = target: T1, human TSH receptor (full length), …; assay: competition with 125I-K1-18 IgG on TSHR coated tubes; 100 µg/mL, diluted in assay buffer
Procedure: as §1

[9] = target: T1, human TSH receptor (full length), …; assay: competition with 125I-K1-18 IgG on TSHR coated tubes; 3 µg/mL, diluted in HBD serum pool
Procedure: as §1

[10] = target: T1, human TSH receptor (full length), …; assay: competition with 125I-K1-18 IgG on TSHR coated tubes; 0.01 µg/mL, diluted in assay buffer
Procedure: as §1

[11] = target: T1, human TSH receptor (full length), …; assay: competition with 125I-K1-18 IgG on TSHR coated tubes; 0.03 µg/mL, diluted in assay buffer
Procedure: as §1

[12] = target: T1, human TSH receptor (full length), …; assay: competition with 125I-K1-18 IgG on TSHR coated tubes; 10 µg/mL, diluted in HBD serum pool
Procedure: as §1

[13] = target: T1, human TSH receptor (full length), …; assay: competition with 125I-K1-18 IgG on TSHR coated tubes; 30 µg/mL, diluted in HBD serum pool
Procedure: as §1

[14] = target: T1, human TSH receptor (full length), …; assay: competition with 125I-K1-18 IgG on TSHR coated tubes; 0.001 µg/mL, diluted in assay buffer
Procedure: as §1

[15] = target: T1, human TSH receptor (full length), …; assay: competition with 125I-K1-18 IgG on TSHR coated tubes; 0.003 µg/mL, diluted in assay buffer
Procedure: as §1

[16] = target: T1, human TSH receptor (full length), …; assay: competition with 125I-K1-18 IgG on TSHR coated tubes; 0.1 µg/mL, diluted in HBD serum pool
Procedure: as §1

[17] = target: T1, human TSH receptor (full length), …; assay: competition with 125I-K1-18 IgG on TSHR coated tubes; 0.3 µg/mL, diluted in HBD serum pool
Procedure: as §1

[18] = target: T1, human TSH receptor (full length), …; assay: competition with 125I-K1-18 IgG on TSHR coated tubes; 100 µg/mL, diluted in HBD serum pool
Procedure: as §1

[19] = target: T1, human TSH receptor (full length), …; assay: competition with 125I-K1-18 IgG on TSHR coated tubes; 0.01 µg/mL, diluted in HBD serum pool
Procedure: as §1

[20] = target: T1, human TSH receptor (full length), …; assay: competition with 125I-K1-18 IgG on TSHR coated tubes; 0.03 µg/mL, diluted in HBD serum pool
Procedure: as §1

[21] = target: T1, human TSH receptor (full length), …; assay: competition with 125I-K1-18 IgG on TSHR coated tubes; 0.001 µg/mL, diluted in HBD serum pool
Procedure: as §1

[22] = target: T1, human TSH receptor (full length), …; assay: competition with 125I-K1-18 IgG on TSHR coated tubes; 0.003 µg/mL, diluted in HBD serum pool
Procedure: as §1

B1: K1-70 Fab (Fab, V domains shown)
VH: EVQLVQSGAEVKKPGQSLKISCKASGYSLTDNWIGWVRQKPGKGLEWMGIIYPGDSDTRYSPSFQGQVTISADKSINTAYLQWSSLKASDTAIYYCVGLDWNYNPLRYWGPGTLVTVSS
VL: QSVLTQPPSVSAAPGQKVTISCSGSSSDIGSNYVSWYQQFPGTAPKLLIYDNNKRPSAIPDRFSGSKSGTSATLGITGLQTGDEADYYCGTWDSRLGIAVFGGGTQLTVLG
- Inhibition of binding (%) [1]: 91%
- Inhibition of binding (%) [2]: 91.1%
- Inhibition of binding (%) [3]: 92.4%
- Inhibition of binding (%) [4]: 92.2%
- Inhibition of binding (%) [5]: 87.6%
- Inhibition of binding (%) [6]: 89.6%
- Inhibition of binding (%) [7]: 92.1%
- Inhibition of binding (%) [8]: 93.3%
- Inhibition of binding (%) [9]: 92.8%
- Inhibition of binding (%) [10]: 25.6%
- Inhibition of binding (%) [11]: 68.8%
- Inhibition of binding (%) [12]: 92.6%
- Inhibition of binding (%) [13]: 91.8%
- Inhibition of binding (%) [14]: -3.9%
- Inhibition of binding (%) [15]: 4.1%
- Inhibition of binding (%) [16]: 75.2%
- Inhibition of binding (%) [17]: 88.1%
- Inhibition of binding (%) [18]: 92.5%
- Inhibition of binding (%) [19]: 16.2%
- Inhibition of binding (%) [20]: 35%
- Inhibition of binding (%) [21]: -3.2%
- Inhibition of binding (%) [22]: 3.7%
